According to the supplement of paper PMC10567573:

B1: FEM1A (parent)
chain: NIVEYLIQEQPGQEQVAGGEAQPG

Variants of: B1
Assay: protein stability index of a GFP-peptide fusion (GPS, HEK-293T) (PSI 1-6); higher = more stable
Conditions: c terminus: a fixed tail appended
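Further: lentivirally expressed fusions sorted by FACS into six bins by GFP to DsRed ratio, PSI derived from sequencing read proportions per bin multiplied by bin number.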

Protein stability index, by site and new letter:
P11: Y 2.65 | K 3.74 | S 3.96 | W 2.13 | I 2.65 | M 2.6 | Q 3.69 | R 3.42 | N 3.8 | G 3.89 | C 3.11 | D 4.47 | H 3.6 | T 3.88 | F 2.75 | L 2.21 | E 4.27 | V 3.28 | A 3.98
E9: A 2.91 | C 3 | M 3.35 | Q 3.52 | D 4.49 | V 2.06 | S 3.36 | K 3.71 | H 2.95 | R 2.88 | W 2.45 | P 3.71 | N 3.38 | L 2.27 | F 2.79 | T 3.15 | G 3.71 | Y 2.42 | I 2.3
I7: Q 5.3 | W 3.95 | P 5.71 | Y 4.33 | R 4.92 | S 4.75 | T 4.65 | V 4.43
Q15: Y 3.67 | E 4.79 | N 4.56 | I 4.08 | W 3.22 | C 4.19 | F 3.24 | G 4.78 | V 3.66 | L 3.53 | P 4.32 | A 4.2 | R 3.78 | T 3.17 | H 4.02 | D 4.08 | M 3.78 | K 3.91 | S 4.52
E14: P 3.73 | Q 3.33 | A 4.06 | G 3.84 | Y 2.69 | I 3.25 | L 3.06 | W 2.25 | S 3.21 | N 3.54 | H 3.48 | F 2.62 | D 4.39 | K 3.85 | V 2.61 | R 3.37 | C 3.38 | M 3.34 | T 4.21
Q10: P 4.54 | T 3.69 | V 3.22 | H 3.88 | C 3.83 | D 4.37 | L 3.43 | R 4.03 | F 3.16 | A 4.34 | S 4.53 | I 3.75 | M 3.21 | W 2 | K 4.3 | Y 3.09 | E 4.62 | N 4.27
Q13: D 4.11 | K 4.48 | F 3.78 | I 3.35 | A 4.02 | M 3.86 | H 4.04 | Y 3.72 | E 4.79 | P 4.26 | L 3.27 | V 4.06 | N 4.42 | S 3.85 | G 4.18 | R 3.79 | T 3.94 | W 3.18
G12: I 3.86 | T 3.87 | D 4.69 | L 3.44 | P 4.87 | E 4.73 | N 4.5 | Q 4.61 | V 3.95 | F 3.09 | C 4.03 | M 4.03 | A 3.83 | R 2.94 | H 4.24 | Y 3.12 | W 2.89 | S 4.65 | K 4.19
Q8: N 4.42 | D 4.89 | Y 3.36 | K 4.06 | S 4.09 | G 4.26 | R 3.11 | F 2.94 | V 3.34 | L 4.39 | C 3.36 | W 3.33 | T 4.88 | E 4.7 | I 3.18 | A 4.46 | P 4.71 | M 3.66 | H 3.93
V16: H 4.36 | F 3.03 | I 3.86 | E 4.35 | K 4.29 | A 4.52 | C 4.02 | G 4.6 | D 4.16
